Measured values published in patent publication US20250313621A1 (NXERA PHARMA UK, published 2025).

Assays:
Wildtype human PAR 1 = molecular target: T1, Wildtype human PAR 1 (human, UniProt P25116 42-425); experiment: cell-based or functional assay
T1 sequence: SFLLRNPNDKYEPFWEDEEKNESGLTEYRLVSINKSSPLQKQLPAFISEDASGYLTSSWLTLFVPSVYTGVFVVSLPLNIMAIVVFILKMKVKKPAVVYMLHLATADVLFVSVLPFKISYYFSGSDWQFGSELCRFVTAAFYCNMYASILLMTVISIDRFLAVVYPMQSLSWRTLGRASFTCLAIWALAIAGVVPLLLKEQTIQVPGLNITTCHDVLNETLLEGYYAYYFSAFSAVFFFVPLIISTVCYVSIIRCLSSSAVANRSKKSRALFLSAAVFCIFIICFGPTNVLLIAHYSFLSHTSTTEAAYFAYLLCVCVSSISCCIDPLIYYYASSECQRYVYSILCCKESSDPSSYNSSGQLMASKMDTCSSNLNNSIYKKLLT

[1] = molecular target: T2, Wildtype human PAR2 expressed on cells (human, UniProt P55085 37-397); experiment: cell-based or functional assay
T2 sequence: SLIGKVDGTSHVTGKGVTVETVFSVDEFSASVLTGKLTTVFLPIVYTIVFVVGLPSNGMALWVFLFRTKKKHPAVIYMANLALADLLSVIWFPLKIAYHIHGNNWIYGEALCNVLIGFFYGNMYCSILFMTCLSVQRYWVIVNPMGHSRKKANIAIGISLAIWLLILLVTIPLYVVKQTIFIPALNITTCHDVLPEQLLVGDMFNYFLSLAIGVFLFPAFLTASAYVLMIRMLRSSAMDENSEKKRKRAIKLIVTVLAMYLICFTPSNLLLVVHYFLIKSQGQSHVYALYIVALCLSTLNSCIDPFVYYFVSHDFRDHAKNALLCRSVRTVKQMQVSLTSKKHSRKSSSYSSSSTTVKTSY

[2] = molecular target: T3, Human PAR2 StaR incorporated into nanodiscs (construct not stated) (human, UniProt P55085 37-377, limits assumed); experiment: SPR Biacore; human PAR2 StaR incorporated into nanodiscs
T3 construct: also called nanodisc-embedded StaR
T3 sequence: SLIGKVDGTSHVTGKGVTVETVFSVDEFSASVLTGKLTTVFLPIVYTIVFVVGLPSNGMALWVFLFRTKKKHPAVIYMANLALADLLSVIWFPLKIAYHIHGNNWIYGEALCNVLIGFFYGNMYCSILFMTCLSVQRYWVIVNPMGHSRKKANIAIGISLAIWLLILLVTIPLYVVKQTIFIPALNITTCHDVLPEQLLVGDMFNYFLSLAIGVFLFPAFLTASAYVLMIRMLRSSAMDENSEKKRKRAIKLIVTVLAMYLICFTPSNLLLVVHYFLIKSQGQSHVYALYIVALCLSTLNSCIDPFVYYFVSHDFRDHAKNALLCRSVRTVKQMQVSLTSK

[3] = molecular target: T4, PAR2-3: P157: 1-377, glycosylated, pBacMamHisStrepII, full length (human, UniProt P55085 26-377); experiment: SPR (table head: Octet); IgG captured via Fc, FL-N PAR2 StaR as analyte; koff at the lower assay limit
T4 construct: detergent-solubilised analyte in SPR, or on infected cells in flow cytometry; also called FL-N PAR2 StaR; FL-N StaR; not shown: C-terminal StrepII and deca-histidine tags
T4 sequence: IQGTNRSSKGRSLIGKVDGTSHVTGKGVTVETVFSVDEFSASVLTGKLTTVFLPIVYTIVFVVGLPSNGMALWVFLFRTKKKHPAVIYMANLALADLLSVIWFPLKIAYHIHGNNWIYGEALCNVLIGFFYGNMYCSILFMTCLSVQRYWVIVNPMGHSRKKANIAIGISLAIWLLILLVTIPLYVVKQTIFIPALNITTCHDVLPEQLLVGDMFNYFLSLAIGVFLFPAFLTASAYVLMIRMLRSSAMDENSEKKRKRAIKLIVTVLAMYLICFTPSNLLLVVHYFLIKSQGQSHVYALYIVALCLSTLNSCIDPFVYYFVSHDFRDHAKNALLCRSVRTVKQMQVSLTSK
Protocol: (§1) For all eleven IgG1f_AEASS, affinities to human PAR2 were determined by SPR. The IgGs were captured via their Fc-fragment and detergent (LMNG/CHS) solubilised FL-N PAR2 StaR was used as analyte in solution. 50 mM HEPES pH 7.5, 150 mM NaCl, 0.02% LMNG was used as assay buffer. To minimize artefacts introduced by non-specific interaction of FL-N PAR2 StaR with the sensors, the CM3 sensors were used as basis to immobilize a high density of anti-hu-Fc capture antibody (BR-1008-39, GE Healthcare). IgGs were captured with relatively high levels of approximately 500 RU to achieve a higher ratio of specific to non-specific binding (while still maintaining conditions suitable for kinetic characterization). Affinities ranged from 6.5 nM to 130 pM. The koff values of the best candidates were at the lower assay limit. A minimum koff of 2.00E-05 s⁻¹ was reported (corresponding to 3% dissociation in 1500 s).

[4] = molecular target: T4, PAR2-3: P157: 1-377, glycosylated, …; experiment: SPR (table head: Octet); IgG captured via Fc, detergent solubilised FL-N PAR2 StaR as analyte
Protocol: as §1

[5] = molecular target: T5, Soluble PAR2 StaR (recombinant human PAR2 StaR protein in detergent, construct not stated) (human, UniProt P55085 37-377, limits assumed); experiment: SPR Biacore T200; IgG captured, PAR2 as analyte; 37 C, 30 min dissociation
T5 construct: also called purified PAR2
T5 sequence: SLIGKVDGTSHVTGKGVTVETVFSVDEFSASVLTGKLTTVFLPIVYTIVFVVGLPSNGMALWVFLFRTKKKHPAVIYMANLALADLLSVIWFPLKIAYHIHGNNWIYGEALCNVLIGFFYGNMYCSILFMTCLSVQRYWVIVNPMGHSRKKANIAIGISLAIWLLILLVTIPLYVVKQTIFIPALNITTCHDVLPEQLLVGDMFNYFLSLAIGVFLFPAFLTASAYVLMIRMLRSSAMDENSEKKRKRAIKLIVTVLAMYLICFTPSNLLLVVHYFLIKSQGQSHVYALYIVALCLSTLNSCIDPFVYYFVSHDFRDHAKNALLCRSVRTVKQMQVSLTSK
Protocol: The assay of PAR2 interaction with anti-PAR2 antibodies was carried out using a Biacore T200 instrument (GE Healthcare). Anti-human IgG antibody (Human Antibody Capture Kit, GE Healthcare) was immobilised by amine coupling in the target and reference flow cells of sensor chip CM3 (GE Healthcare) to a surface density of 2700 to 3000 resonance units (RU). Immobilisation was carried out at 25° C. in HBS-EP+buffer (GE Healthcare). The buffer was then changed to 50 mM HEPES, pH 7.5, 150 mM NaCl, 0.02% LMNG, 0.002% CHS for the PAR2-antibody interaction assay which was carried out at either 25 or 37° C. Each cycle of the assay began with antibody capture in the target flow cell to a level of 400 to 450 RU. PAR2 was then injected over target and reference flow cells at three concentrations, 5 min each, followed by 30-min dissociation. The surface was then regenerated with a solution provided in the kit (Human Antibody Capture Kit, GE Healthcare). With every antibody tested the first cycle was a blank (three injections of the running buffer) and the second a series of 50, 100, and 200 nM PAR2 injections.

B1: Y022870 (antibody, human IgG1, lambda, V domains shown)
VH: EVQLLESGGGLVQPGGSLRLSCAASGFSFSRYAITWVRQAPGKGLEWVSTISALGLETYYAESVRGRFTISRDNSKNTLYLQMNSLRAEDTAVYYCARGFHYTHSGKRYYYPFDIWGQGTLVTVSS
VL: QSALTQPASVSGSPGQSITISCTGTSSDVGSYNLVSWYQQHPGKAPKLMIYEGSKRPSGVSNRFSGSKSGNTASLTISGLQAEDEADYYCSQYATFIAFAVFGGGTKLTVLG
notes: also called Y22870
Human PAR1 SFLLR IC50, IP-One (Wildtype human PAR 1): > 3160 nM
SFLLR fold inhibition, human PAR1, IP-One (Wildtype human PAR 1): 0 fold
AP IC50, HT-29 FLIPR calcium mobilisation [1]: 17.8 nM
Trypsin IC50, HT-29 FLIPR calcium mobilisation [1]: 40 nM
Kd [2]: 2.7 nM
koff [2]: 0.00025 s⁻¹
kon [2]: 93000 M⁻¹ s⁻¹
Kd [3]: ≤ 0.21 nM
kon [4]: 96000 M⁻¹ s⁻¹
Kd [5]: 0.45 nM
koff [5]: 1.9e-05 s⁻¹
kon [5]: 41000 M⁻¹ s⁻¹
t½ [5]: 10.3 h

B2: Y022877 (antibody, human IgG1, lambda, V domains shown)
VH: EVQLLESGGGLVQPGGSLRLSCAASGFTFSRYAMTWVRQAPGKGLEWVSTISGLGQEAYYAGSVKGRFTISRDNSKNTLYLQMNSLRAEDTAVYYCARGFHYTHSGKRYYYPFDIWGQGTLVTVSS
VL: QSALTQPASVSGSPGQSITISCTGTSSDVGSYNLVSWYQQHPGKAPKLMIYEGSKRPSGVSNRFSGSKSGNTASLTISGLQAEDEADYYCSQYATFIAFAVFGGGTKLTVLG
notes: also called Y22877
Human PAR1 SFLLR IC50, IP-One (Wildtype human PAR 1): > 3160 nM
SFLLR fold inhibition, human PAR1, IP-One (Wildtype human PAR 1): 0 fold
AP IC50, HT-29 FLIPR calcium mobilisation [1]: 44.3 nM
Trypsin IC50, HT-29 FLIPR calcium mobilisation [1]: 49 nM
Kd [2]: 2.8 nM
koff [2]: 0.00021 s⁻¹
kon [2]: 73000 M⁻¹ s⁻¹
Kd [3]: 0.29 nM
kon [4]: 68000 M⁻¹ s⁻¹
Kd [5]: 0.55 nM
koff [5]: 1.7e-05 s⁻¹
kon [5]: 31000 M⁻¹ s⁻¹
t½ [5]: 11.5 h

B3: Y022883 (antibody, human IgG1, lambda, V domains shown)
VH: EVQLLESGGGLVQPGGSLRLSCAASGFSFTRYAISWVRQAPGKGLEWVSVISGHGSEANYAESVKGRFTISRDNSKNTLYLQMNSLRAEDTAVYYCARGFHYTHSGKRYYYPFDIWGQGTLVTVSS
VL: QSALTQPASVSGSPGQSITISCTGTSSDVGSYNLVSWYQQHPGKAPKLMIYEGSKRPSGVSNRFSGSKSGNTASLTISGLQAEDEADYYCSQYATFIAFAVFGGGTKLTVLG
notes: also called Y22883; Y02283
Human PAR1 SFLLR IC50, IP-One (Wildtype human PAR 1): > 3160 nM
SFLLR fold inhibition, human PAR1, IP-One (Wildtype human PAR 1): 0 fold
AP IC50, HT-29 FLIPR calcium mobilisation [1]: 42 nM
Trypsin IC50, HT-29 FLIPR calcium mobilisation [1]: 47 nM
Kd [3]: 0.14 nM
kon [4]: 140000 M⁻¹ s⁻¹
Kd [5]: 0.65 nM
koff [5]: 2.3e-05 s⁻¹
kon [5]: 36000 M⁻¹ s⁻¹
t½ [5]: 8.3 h
